Measurements taken from paper PMC6930079.

Target: YFP-PP1γ (UniProt P36873)
Test: live-cell FRET at kinetochores (FRET/CFP intensity ratio)
Conditions: HeLa cells, MG132 for 1 hr before imaging, 37°C; Cells = 6, Area KT = 42 (4A) and 50 (WT); parent: est. 1.6; read off a plot

UniProt P36873, sequence (P36873 whole entry): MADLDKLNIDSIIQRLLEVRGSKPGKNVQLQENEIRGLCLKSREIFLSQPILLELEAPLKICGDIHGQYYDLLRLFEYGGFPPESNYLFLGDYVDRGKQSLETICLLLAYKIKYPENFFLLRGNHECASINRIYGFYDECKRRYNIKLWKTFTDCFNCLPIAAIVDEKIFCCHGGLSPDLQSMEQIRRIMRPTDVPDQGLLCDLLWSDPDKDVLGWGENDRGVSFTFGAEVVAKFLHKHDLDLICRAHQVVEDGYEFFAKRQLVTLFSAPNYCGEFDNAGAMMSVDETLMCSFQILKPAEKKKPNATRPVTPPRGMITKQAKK

**Q.** How did the response turn out when “Astrin-CFP (WT) (from UniProt Q96R06) 4A (RVMF motif changed to AAAA)” was run?
**A.** 1.2
